The record followed here is paper PMC6166713.

The target in one experiment is GST-WASP(201–254) (UniProt P42768). The experiment can be described thus: scintillation proximity assay (SPA); 5 nM GST-WASP variant immobilised on protein A SPA fluoromicrospheres via an anti-GST antibody; varying concentrations of [3H]GTP·Cdc42; direct binding isotherm; apparent Kd; low-salt buffer.
Another experiment has as its target GST-WASP(201–321) F244A (UniProt P42768). The experiment is described as above.
The target of another experiment is GST-WASP(201–321) F271A (UniProt P42768). The description is as above.
Another experiment concerns the target GST-WASP(201–321) G251A (UniProt P42768). The experiment is described as above.
The target of the next experiment is GST-WASP(201–321) H246A (UniProt P42768). The experiment is described as above.
In a further experiment the target is GST-WASP(201–321) H249A (UniProt P42768). Described as above.
For a further experiment, the target named is GST-WASP(201–321) I233A (UniProt P42768). The description is as above.
The next experiment concerns the target GST-WASP(201–321) K235A (UniProt P42768). The experiment is described as above.
Another experiment deals with GST-WASP(201–321) L267A (UniProt P42768). The experiment is described as above.
The next experiment deals with GST-WASP(201–321) L270A (UniProt P42768). The experiment is described as above.
Another experiment concerns the target GST-WASP(201–321) P241A (UniProt P42768). Described as above.
Another experiment deals with GST-WASP(201–321) S242A (UniProt P42768). The experiment is described as above.
The target in the next experiment is GST-WASP(201–321) V250A (UniProt P42768). The experiment is described as above.
In a further experiment the target is GST-WASP(201–321) W252A (UniProt P42768). Described as above.
For experiment [1], the target named is GST-WASP(201–321) wild type (UniProt P42768). The experiment is described as above.
Experiment [2] concerns the target GST-WASP(201–321) K225A/K226A/R227A (UniProt P42768). The experiment can be described thus: BLI; Octet Red; GST-WASP variants loaded on anti-GST sensors (10 μg/ml), dipped into a dilution range of Cdc42·GMPPNP; 50 mM Tris-HCl pH 7.5, 150 mM NaCl, 1 mM MgCl2, 0.02% Tween 20, 0.1% BSA, 0.05% sodium azide, 25 °C; GST-alone sensors subtracted.
Experiment [3] addresses GST-WASP(201–321) K225A/K226A/R227A/K230A/K231A/K232A (UniProt P42768). The experiment is described as above.
The target of experiment [4] is GST-WASP(201–321) K225A/R227A (UniProt P42768). Described as above.

In the case of “Cdc42 Δ7 Q61L (from UniProt P60953 1-191) (natural protein)”, the Kd was 31.8 nM in the experiment with GST-WASP(201–254); 64.9 nM with GST-WASP(201–321) F244A; 5 nM with GST-WASP(201–321) F271A; 5.2 nM with GST-WASP(201–321) G251A; 42.3 nM in the experiment with GST-WASP(201–321) H246A; 43.1 nM in the experiment with GST-WASP(201–321) H249A. Also, the Kd in the experiment with GST-WASP(201–321) I233A is 26.4 nM; with GST-WASP(201–321) K235A it was 8 nM; with GST-WASP(201–321) L267A, 3.2 nM; with GST-WASP(201–321) L270A, 1.7 nM; in the experiment with GST-WASP(201–321) P241A it was 38.3 nM; with GST-WASP(201–321) S242A, 6.4 nM. The Kd was found to be 10.1 nM with GST-WASP(201–321) V250A; 9.6 nM in the experiment with GST-WASP(201–321) W252A; 0.5 nM in experiment [1]; 79.2 nM in experiment [2]; 734 nM in experiment [3]; 81.5 nM in experiment [4]. Also, the results for the koff in [2], in experiment [3] and in experiment [4] were 0.042 s⁻¹, 0.145 s⁻¹ and 0.0371 s⁻¹, respectively. The association rate constant (kon) was 540000 M⁻¹ s⁻¹ in experiment [2], 198000 M⁻¹ s⁻¹ in experiment [3] and 456000 M⁻¹ s⁻¹ in experiment [4].
